Data published in publication PMC2171568 (The Journal of Cell Biology, 2005).
Non-standard residues stand in square brackets, D forms with d. No end group written: not given here. pS = N[C@@H](COP(=O)(O)O)C(=O)O

Key:
[1] = target: T1, 14-3-3 Saccharomyces cerevisiae isoform BMH1, His-tagged (Saccharomyces cerevisiae, UniProt P29311 1-267); test: pull-down
T1 sequence (looked up): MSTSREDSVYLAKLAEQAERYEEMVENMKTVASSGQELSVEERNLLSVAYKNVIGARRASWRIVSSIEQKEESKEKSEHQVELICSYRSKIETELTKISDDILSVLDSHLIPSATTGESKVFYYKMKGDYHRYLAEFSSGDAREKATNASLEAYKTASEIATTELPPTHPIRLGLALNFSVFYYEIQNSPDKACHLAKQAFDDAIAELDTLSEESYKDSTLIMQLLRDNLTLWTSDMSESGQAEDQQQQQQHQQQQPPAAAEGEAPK

[2] = target: T2, 14-3-3 Saccharomyces cerevisiae isoform BMH2, His-tagged (Saccharomyces cerevisiae, UniProt P34730 1-273); test: pull-down
T2 sequence (looked up): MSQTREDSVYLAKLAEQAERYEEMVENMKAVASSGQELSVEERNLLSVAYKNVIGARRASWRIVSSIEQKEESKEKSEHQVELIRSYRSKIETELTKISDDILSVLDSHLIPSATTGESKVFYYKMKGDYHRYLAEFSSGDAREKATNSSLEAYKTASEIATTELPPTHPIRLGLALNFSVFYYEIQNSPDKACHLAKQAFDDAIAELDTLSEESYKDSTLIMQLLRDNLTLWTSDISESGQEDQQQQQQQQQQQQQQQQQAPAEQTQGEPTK

binding result [1]: binds | binding result [2]: binds
Binder: ARAA[pS]APA [peptide ARAApSAPA]
